According to patent US20190169286A1 (Chugai, published 2019):
Positions count from the first letter of the chain named. In names and notes the source's numbering stands.

How the values were obtained:
[1] = biological target: T1, soluble cynomolgus monkey FcγRIIIa (His-tagged) (cynomolgus monkey, UniProt Q8SPW2 17-208); test: SPR (Biacore T200), antibody captured on rProtein L on a CM4 chip, soluble His-tagged FcγR injected, HBS-EP+, 20 °C
T1 construct: also called cynoFcγRIIIa; not shown: His tag
Protocol: (§1) Soluble FcγRIa and FcγRIIIa in both human and cynomolgus monkey were produced in the form of His-tagged molecules by methods known to those of ordinary skill in the art. […] Next, soluble FcγRIa or FcγRIIIa was injected with a running buffer (used as a reference solution), and was made to interact with the antibodies captured onto the sensor chip. HBS-EP+(GE Healthcare) was used as the running buffer, and HBS-EP+ was also used to dilute the soluble FcγRIa or FcγRIIIa. […] All measurements were carried out at 20° C.

[2] = biological target: T2, soluble human FcγRIIIa (His-tagged) (human, UniProt P08637 17-208); test: as above
T2 construct: also called hFcγRIIIa; not shown: His tag
Protocol: as §1

[3] = biological target: T3, soluble human FcγRIa (His-tagged) (human, UniProt P12314 16-292, limits assumed); test: as above
T3 construct: also called hFcγRIa; not shown: His tag
Protocol: as §1

[4] = biological target: T4, human IL-8 (human, UniProt P10145 23-99, limits assumed); test: SPR Biacore T200, Protein A/G capture, pH 5.8, 37C;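 on Kd: antibodies captured by Protein A/G amine-coupled onto a CM4 sensor chip, with kinetic parameters derived using Biacore T200 Evaluation Software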
T4 construct: also called hIL-8; hIL8
Protocol: (§2) An appropriate amount of Protein A/G (PIERCE) was immobilized onto the Sensor chip CM4 (GE Healthcare) by the amine coupling method and the antibodies of interest were captured. […] To regenerate the sensor chip, 25 mM NaOH and 10 mM glycine-HCl (pH 1.5) were used. […] The BIACORE T200 Evaluation Software (GE Healthcare) was used to calculate each parameter.

[5] = biological target: T4, human IL-8; test: SPR Biacore T200, Protein A/G capture, pH 7.4, 40C;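 on Kd: antibodies captured via Protein A/G, which was amine-coupled to a CM4 sensor chip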
Protocol: as §2

[6] = biological target: T4, human IL-8; test: SPR Biacore T200, Protein A/G capture, IL-8 analyte, pH 5.8, 37C
Protocol: (§3) An appropriate amount of Protein A/G (PIERCE) was immobilized onto Sensor chip CM4 (GE Healthcare) by the amine coupling method and the antibodies of interest was captured. […] To regenerate the sensor chip, 10 mM glycine-HCl at pH 1.5 was used. All measurements were carried out at 37° C. […] The BIACORE T200 Evaluation Software (GE Healthcare) was used to calculate each parameter.

[7] = biological target: T4, human IL-8; test: SPR Biacore T200, Protein A/G capture, IL-8 analyte, pH 7.4, 37C
Protocol: as §3

[8] = biological target: T4, human IL-8; test: SPR Biacore T200, Protein A/G capture, IL-8 analyte, pH 5.8, 37C; remark: listed apart in the source
Protocol: as §3

[9] = biological target: T4, human IL-8; test: SPR Biacore T200, Protein A/G capture, pH 5.8, 37C; remark: listed apart in the source;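 on Kd: antibodies captured by Protein A/G amine-coupled onto a CM4 sensor chip, with kinetic parameters derived using Biacore T200 Evaluation Software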
Protocol: as §2

[10] = biological target: T4, human IL-8; test: SPR Biacore T200, Protein A/G capture, IL-8 analyte, pH 7.4, 37C; remark: listed apart in the source
Protocol: as §3

[11] = biological target: T4, human IL-8; test: SPR IL-8 binding level per 1000 RU captured Ab, pH 7.4, 40C; 1 week 50C in PBS vs initial
[12] = biological target: T4, human IL-8; test: SPR Biacore T200, Protein A/G capture, pH 7.4, 40C; remark: listed apart in the source;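 on Kd: antibodies captured via Protein A/G, which was amine-coupled to a CM4 sensor chip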
Protocol: as §2

T4 sequence (P10145 23-99 limits assumed): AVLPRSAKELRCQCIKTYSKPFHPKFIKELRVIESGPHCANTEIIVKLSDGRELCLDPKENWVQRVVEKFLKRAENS
T1 sequence (Q8SPW2 17-208 limits assumed): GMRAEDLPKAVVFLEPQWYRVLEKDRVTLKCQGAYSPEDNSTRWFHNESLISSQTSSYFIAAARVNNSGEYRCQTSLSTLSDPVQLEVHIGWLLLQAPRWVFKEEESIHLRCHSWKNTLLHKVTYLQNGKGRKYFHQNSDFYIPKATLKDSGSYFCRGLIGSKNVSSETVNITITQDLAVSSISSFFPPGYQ
T2 sequence (P08637 17-208 limits assumed): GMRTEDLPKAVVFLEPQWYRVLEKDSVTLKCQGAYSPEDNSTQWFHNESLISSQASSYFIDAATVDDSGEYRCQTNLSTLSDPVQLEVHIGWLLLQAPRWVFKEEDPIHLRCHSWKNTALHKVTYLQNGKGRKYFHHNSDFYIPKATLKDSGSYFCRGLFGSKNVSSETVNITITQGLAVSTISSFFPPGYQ
T3 sequence (P12314 16-292 limits assumed): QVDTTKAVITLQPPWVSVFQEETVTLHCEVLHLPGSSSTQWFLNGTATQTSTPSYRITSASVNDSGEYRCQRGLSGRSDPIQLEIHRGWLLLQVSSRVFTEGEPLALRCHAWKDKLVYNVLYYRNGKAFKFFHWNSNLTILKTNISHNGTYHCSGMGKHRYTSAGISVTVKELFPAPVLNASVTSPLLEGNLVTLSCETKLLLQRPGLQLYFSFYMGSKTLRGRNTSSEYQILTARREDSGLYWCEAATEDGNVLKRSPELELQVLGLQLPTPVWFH

B1: H1009/L395-F1974m (H1009-F1974m / L395-k0MT) (antibody)
heavy: QVQLVESGGGLVQPGGSLRLSCAASGFTFSDYYLSWVRQAPGKGLEWVGLIRNKDNYHTPEYSASVKGRFTISRDDSKNSLYLTMSDLKTEDTAVYYCARENHRYDVELAYWGQGTLVTVSSASTKGPSVFPLAPSSKSTSGGTAALGCLVKDYFPEPVTVSWNSGALTSGVHTFPAVLQSSGLYSLSSVVTVPSSSLGTQTYICNVNHKPSNTKVDKKVEPKSCDKTHTCPPCPAPELRRGPSVFLFPPKPKDTLMISRTPEVTCVVVDVSHEDPEVKFNWYVDGVEVHNAKTKPREEQYNSTYRVVSVLTVLHQDWLNGKEYKCKVSNKGLPSSIEKTISKAKGQPREPQVYTLPPSREEMTKNQVSLTCLVKGFYPSDIAVEWESNGQPENNYKTTPPVLDSDGSFFLYSKLTVDKSRWQQGNVFSCSVLHEALHAHTTRKELSLSP
light: DIQMTQSPSSLSASVGDRVTITCRASEIIYSYLAWYQQKPGKAPKLLIYKAKTHADGVPSRFSGSGSGTDFTFTISSLQPEDIATYYCKHHFGFPRTFGQGTKVEIKRTVAAPSVFIFPPSDEQLKSGTASVVCLLNNFYPREAKVQWKVDNALQSGNSQESVTEQDSKDSTYSLSSTLTLSKADYEKHKVYACEVTHQGLSSPVTKSFNRGEC
notes: also called antibody H1009/L395-F1974m
B1: no binding (tested: not given) [1]; no binding (tested: not given) [2]; no binding (tested: not given) [3].

B2: H89/L118 (H89-IgG1 / L118-k0MT) (antibody, V domains shown)
VH: QVQLVESGGGLVQPGGSLRLSCAASGFTFSDYYLSWVRQAPGKGLEWVGLIRNKANGYTREYSASVKGRFTISRDDSKNSLYLQMSSLKTEDTAVYYCARENHRYDVELAYWGQGTLVTVSS
VL: DIQMTQSPSSLSASVGDRVTITCRASEIIYSYLAWYQQKPGKAPKLLIYHAKTHADGVPSRFSGSGSGTDFTFTISSLQPEDIATYYCKHHFGFPRTFGQGTKVEIKR
notes: also called H0089/L0118
B2 showed a koff [4] of 0.00628 s⁻¹, a kon [4] of 129000 M⁻¹ s⁻¹ and a koff [5] of 0.000129 s⁻¹. For the same binder, the kon [5] was 751000 M⁻¹ s⁻¹, the koff [6] was 0.00384 s⁻¹ and the kon [6] was 179000 M⁻¹ s⁻¹. For the same binder, the koff [7] was 2.13e-05 s⁻¹, the kon [7] was 580000 M⁻¹ s⁻¹ and the koff [8] was 0.0039 s⁻¹. For the same binder, the kon [8] was 123000 M⁻¹ s⁻¹, the koff [9] was 0.0063 s⁻¹ and the koff [10] was 0.000114 s⁻¹. For the same binder, the kon [10] was 945000 M⁻¹ s⁻¹.

B3: H1009/L395 (H1009-IgG1m / L395-k0MT) (antibody)
heavy: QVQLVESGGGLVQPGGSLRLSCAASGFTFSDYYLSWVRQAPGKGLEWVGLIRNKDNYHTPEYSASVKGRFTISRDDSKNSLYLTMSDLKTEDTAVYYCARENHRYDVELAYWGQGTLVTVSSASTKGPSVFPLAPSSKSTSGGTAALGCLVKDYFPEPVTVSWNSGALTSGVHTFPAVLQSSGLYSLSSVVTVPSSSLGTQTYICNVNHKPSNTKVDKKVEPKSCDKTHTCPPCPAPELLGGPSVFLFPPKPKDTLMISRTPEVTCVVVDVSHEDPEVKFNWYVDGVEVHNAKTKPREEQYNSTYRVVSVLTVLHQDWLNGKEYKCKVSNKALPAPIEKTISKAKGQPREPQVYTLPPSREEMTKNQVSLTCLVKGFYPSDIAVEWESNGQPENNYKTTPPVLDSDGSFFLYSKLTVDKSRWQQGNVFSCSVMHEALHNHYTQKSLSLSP
light: B1 light
notes: also called H1009/L0395
With B3 the koff [9] was 0.01 s⁻¹ and the “Ratio of IL-8 Binding Amount (Thermal Acceleration/Initial)” value [11] was 0.64.

B4: H1040/L0442 (antibody, human IgG1, kappa, name in Kabat numbering, V domains shown)
VH: B2 VH with D31E, A55D, G57H, Y58H, T59H, R60P, Q84T, S87D
VL: B2 VL with S31E, H50K
notes: L442 = L395 + S31E
Work on B4 yielded a Kd [12] of 0.34 nM, a Kd [9] of 140 nM and a koff [9] of 0.21 s⁻¹. For the same binder, the “Ratio of IL-8 Binding Amount (Thermal Acceleration/Initial)” value [11] was 0.49.
